Target: the molecule itself
Assay: western blot of cell extracts; extracts of TNBC (MDA-MB-231) cells incubated in TPBC-medium, TNBC-medium or S-medium; detected with a polyclonal antibody to S100A4; gel conditions not stated

B1: S100A4 protein (natural protein)
chain: not shown
notes: S100A4 (Mts1), endogenous in the human triple-negative breast carcinoma cell line MDA-MB-231; Monomeric, dimeric and tetrameric forms were told apart as bands on a western blot of cell extracts; also called Mts1; source: endogenous, MDA-MB-231 (TNBC) cell extract
stoichiometry N: 4

Source: publication PMC9116394, “Triple-negative and triple-positive breast cancer cells reciprocally control their growth and migration via the S100A4 pathway” (Cell Adhesion & Migration, 2022)
